Where a chain is given by its changes, count along the chain named.
B1: Oncolysin 2: second generation molecule: oncolysin N with a synthetic collagen binding domain at the C terminus (protein)
chain: MRIAVICFCLLGITCAGGGPGIPVKQADSGSSEEKGGGPGTPVVPTVDTYDGRGDSVVYGLRSKPAGAAGGPAGPAGPAGPAGPAGP
B2: MRIAVICFCLLGITCAGGGPGIPVKQADSGSSEEKGGGPGTPVVPTVDTY DGRGDSVVYGLRSKKAARGRRAARGRR (protein)
chain: MRIAVICFCLLGITCAGGGPGIPVKQADSGSSEEKGGGPGTPVVPTVDTYDGRGDSVVYGLRSKKAARGRRAARGRR
B3: MRIAVICFCLLGITCAGGGPGIPVKQADSGSSEEKGGGPGTPVVPTVDTY DGRGDSVVYGLRKKKAARGRRAARGRR (protein)
chain: B2 chain with S63K
B4: … VYGLRKKKAARGRRAARGRR (protein)
chain: HHGHHGGHHHPGIPVKQADSGSSEEKGGGPPTPVVPTVDTYDGRGDSVVYGLRKKKAARGRRAARGRR
modifications: His tag
B5: oncolysin 1/Sophin C: second generation molecule: oncolysin N with synthetic heparin binding domain (RSKK and RGRR) at the C terminus; 71mer (protein)
chain: MRIAVICFCLLGITCAGGGPGIPVKQADSGSSEEKGGGPGTPVVPTVDTYDGRGDSVVYGLRSKKAARGRR

Experiments:
microtubules = assay: effect on microtubules in treated cells; assay type: cell-based
Description: Based on a detailed understanding of the functional domains of osteopontin and an understanding of the role this multifunctional cytokine plays in the regulation of cellular apoptosis, biosynthetic molecules which mimic distinct functions of osteopontin are provided for use in a variety of therapeutic applications, in particular, in the treatment of cancer and inflammatory conditions such as arthritis. In particular, the biosynthetic molecules are useful in the elimination of abnormal or unwanted cells that express at least an integrin receptor and/or that co-express both an integrin and a CD44 receptor. Many of the biosynthetic molecules/peptides disclosed herein are believed to uncouple integrin signaling form CD 44 signaling, resulting in the stabilization of microtubules by down stream activation of rhoB. […] Cells treated with these molecules organize the arrays of disorganized microtubules into parallel bundles and freeze the normal, microtubular, mitotic bundle. As a result, the treated cells form several more asters at various locations with the cell, serving to further strengthen the cell's structure and preventing cell separation.
Many of the biosynthetic molecules/peptides disclosed herein are believed to uncouple integrin signaling form CD 44 signaling. […] Cells treated with these molecules organize the arrays of disorganized into parallel bundles and freeze the normal, microtubular, mitotic bundle. As a result, the treated cells form several more asters at various locations with the cell, serving to further strengthen the cell's structure and preventing cell separation.

[1] = tested on: metastatic tumor cell line; assay: apoptosis assay, flow cytometric analysis of propidium iodide uptake; assay type: cell-based; conditions: apoptosis assays
Description: A first generation osteopontin-derived biosynthetic molecule, oncolysin N, was engineered based on the isolation of a domain of osteopontin sufficient to impart pro-apoptotic activity when isolated away from the naturally-occurring osteopontin polypeptide. In particular, the oncolysin N molecule was designed to include the following domains: (1) a signal sequence (i.e., signal peptide), derived in this instance from the native osteopontin amino acid sequence (i.e., amino acids 1-16 of the human osteopontin-B amino acid sequence set forth as SEQ ID NO:1); (2) a golgi processing domain derived from the native osteopontin amino acid sequence (i.e., amino acids 17-30 of the human osteopontin-B amino acid sequence set forth as SEQ ID NO:1); (3) a pro-apoptotic domain comprising contiguous amino acid residues of human osteopontin-B sufficient to induce apoptosis (i.e., amino acids 147-170 of the human osteopontin-B amino acid sequence set forth as SEQ ID NO:1) yet lacking additional osteopontin-B sequences which are unnecessary for apoptotic activity, or alternatively decrease pro-apoptotic activity, of the biosynthetic molecule; and (4) two linker domains, a first linker domain operably linking the signal sequence to the golgi processing domain, and a second linker domain operably linking the golgi processing domain to the pro-apoptotic domain. The signal sequence and golgi processing domain optimize synthesis, processing through the golgi and secretion of the biosynthetic oncolysin N molecule. […]
Cells are grown in culture and treated with varying doses of exogenous oncolysin N. Apoptosis is determined by flow cytometric analysis according to the uptake of propidium iodide. […] DNA cleavage in apoptotic cells is assessed by flow cytometric analysis, as cells containing hypodiploid nuclei bind less propidium iodide than intact nuclei.
Cellular apoptosis can also be determined using standard criteria in the art such as nuclear condensation, chromatin fragmentation, and viability as assessed by Trypan blue exclusion. […]

MDA-MB-231 xenografts = assay: MDA-MB-231 xenograft tumor growth in nude mice (FIG. 4); assay type: in vivo; conditions: for tumor volume: compared to controls
Procedure: To evaluate the effectiveness of oncolysin 1/Sophin C against primary tumor growth and metastasis, 1×10^7 MDA-MB-231 breast cancer cells were injected subcutaneously into the left flank of nude mice. After six weeks the resulting tumors were aseptically dissected out, minced and 1 mm-tumor pieces were transplanted into the right flank of nude mice using a trocar needle. One weeks later, when tumors measured approximately 10 mm, mice were assigned to different experimental groups. One set of 24 animals bearing MDA-MB-231 xenografts were divided into 3 groups that received the following treatments: A first group of 8 animals were injected with pRetro-oncolysin (1×10^6 viral particles). After one day and weekly thereafter (for 3 weeks) these animals received a weekly injection of the inducing agent Doxycyxlin (1 mg/kg) through the peritoneal cavity. A second group of 8 animals received a weekly injection of Doxycyclin (uninfected tumors) and a third group received a weekly injection of oncolysin protein (10 μg/kg). In another set of experiments, the pRetro-oncolysin was injected into the marrow stroma of tumor bearing mice. After, day one, the animals were treated as above, with weekly injection of Doxycyclin. Tumors were measured once every two days with microcalipers, and tumor volume was calculated as length×width×height×0.5236. Body weight was measured on the day of the injection, 4 days later and weekly thereafter. Four days after the first injection, blood samples were collected from the tail vein using the Unopette™ micro-collection kit. Total leukocyte and platelet counts were determined manually using a hemocytometer. Blood smears stained with the Hema3™ kit were used for assessing absolute numbers of granulocytes and lymphocytes. Treatment-related toxicity was evaluated based on the differences in body weight, liver and kidney marker enzymes, and hematological parameters between treatment groups. 20 weeks after treatment, animals were killed by decapitation under anesthesia. […] Liver, heart, uterus, ovaries, lungs spinal cord and all long bones were evaluated histologically.

SHP-1 = assay: signal transduction pathway in infected cells (FIG. 3), SHP-1; assay type: cell-based; conditions: infected cells compared to control cells
Description: (§1) FIG. 3 depicts an alteration in the signal transduction pathway in cells infected with oncolysin 1/Sophin C as compared to control cells.

MDA-MB-231 tumor cells = assay: tubulin staining by indirect fluorescent immunochemistry; assay type: cell-based, human; conditions: induced with 3 μg/ml Doxycycline, six hours; versus uninduced infected cells
Procedure: Oncolysin 1-infected MDA-MB-231 tumor cells were induced with 3 μg/ml of Doxycycline. After six hours, the cells were fixed in 10% formaldehyde then stained for tubulin using indirect fluorescent immunochemistry.

PI-3 kinase = assay: signal transduction pathway in infected cells (FIG. 3), PI-3 kinase; assay type: cell-based; conditions: infected cells compared to control cells
Description: as §1

[2] = tested on: breast, prostate and uterine tumors; assay: tumor growth in breast, prostate and uterine tumor models, dose response (FIG. 5); assay type: in vivo
Procedure: The effect of Sophin C on tumor growth was evaluated for three tumor types, breast, prostate and uterine.

[3] = tested on: MDA-MB-231 Human Breast Cancer Cell; assay: nuclear stain (H and E) of infected cells; assay type: cell-based; conditions: with or without doxycyclin induction for six hours
Description: Infected cells were stained with H and E without induction with doxycyclin or after induction for six hours.

MDA-MB-231 cells = assay: FragEL apoptotic assay in cells infected with pRetro-oncolysin and induced with Doxycycline; assay type: cell-based, human; conditions: 48 h after infection, induced with 3 ug Doxycycline for 6 hours; versus uninduced cells
Procedure: 50,000 Breast tumor cells were infected with approximately 500,000 viral particles in DME+10% FBS containing 4 μg/ml polybrene. After 48 h., the MDA-MB-231 cells were induced with 3 ug of Doxycycline for 6 hours in defined media. Apoptosis was assessed using the FragEL™ apoptotic assay. Uninduced cells are viable and labeled blue when viewed at 10× magnification under a light microscope. […] Each experiment was performed in duplicates and repeated 3 times.

Row | Molecule | capping of microtubules (microtubules) | polymerization of microtubules (microtubules) | apoptotic activity (induction of apoptosis) [1] | further results
1 | GIPVKQADSGSSEEKGGGPPTPVVPTVDTYDGRGDSVVYGLRKKKAARG RRAARGRR (GIPVKQADSGSSEEKGGGPPTPVVPTVDTYDGRGDSVVYGLRKKKAARGRRAARGRR) [SEQ ID NO:10] | inhibit the capping of microtubules | induces their unidirectional polymerization |  | 
2 | PGIPVKQADSGSSEEKGGGPGTPVVPTVDTYDGRGDSVVYGLRKKKAARGRRAARGRR (PGIPVKQADSGSSEEKGGGPGTPVVPTVDTYDGRGDSVVYGLRKKKAARGRRAARGRR) [SEQ ID NO:15] | inhibit the capping of microtubules | induces their unidirectional polymerization |  | 
3 | PGIPVKQADSGSSEEKGGGPGTPVVPTVDTYDGRGDSVVYGLRKKKAAR GRRAARGRR (PGIPVKQADSGSSEEKGGGPGTPVVPTVDTYDGRGDSVVYGLRKKKAARGRRAARGRR) [SEQ ID NO:14] | inhibit the capping of microtubules | induces their unidirectional polymerization |  | 
4 | PYAGRGDSVVYGLKKKNNQKAEPLIGRKKTR [SEQ ID NO:16] | inhibit the capping of microtubules | induces their unidirectional polymerization |  | 
5 | osteopontin-B: native human osteopontin-B, a preferred splice variant of the human osteopontin gene [reference compound] |  |  | no apoptotic activity | 
6 | B1 |  |  | more effective at promoting apoptosis than oncolysin N | 
7 | B2 | inhibit the capping of microtubules | induces their unidirectional polymerization |  | 
8 | B3 | inhibit the capping of microtubules | induces their unidirectional polymerization |  | 
9 | B4 | inhibit the capping of microtubules | induces their unidirectional polymerization |  | 
10 | B5 | inhibit the capping of microtubules | induces their unidirectional polymerization | dramatically increase apoptotic activity | health of treated mice (MDA-MB-231 xenografts; all treated mice, after approximately 6 months, control animals died or were sacrificed): remained healthy; tumor volume (MDA-MB-231 xenografts; group 1: pRetro-oncolysin 1×10^6 viral particles plus weekly Doxycyclin 1 mg/kg): striking reduction in tumor volume; tumor volume (MDA-MB-231 xenografts; group 3: weekly injection of oncolysin protein 10 μg/kg): striking reduction in tumor volume; SHP-1 protein expression (SHP-1): decreased SHP-1 protein expression; tubulin staining (MDA-MB-231 tumor cells): stabilized tubulin around multi-nuclei; PI-3 kinase expression (PI-3 kinase): increased PI-3 kinase expression; tumor volume ([2]; 50 μg/kg protein): reduction in tumor volume; tumor volume ([2]; 500 μg/kg protein): reduction in tumor volume; multinucleation [3]: Multinucleation was observed only in induced cells; apoptosis (FragEL staining) (MDA-MB-231 cells): undergo apoptosis
